Legend:
recombinant human IL-13 [1] = target: T1, recombinant human IL-13 (human, UniProt P35225 35-146, limits assumed); assay: cell-based or functional assay
recombinant human IL-13 [2] = target: T1, recombinant human IL-13; assay: SPR, BIAcore 2000; Fab captured via anti-human L-kappa antibody, hrIL-13 injected; 1:1 Langmuir model
Method: Quantitative Analysis of Binding Affinities: Determination of Anti-Human IL-13 Fab Candidates Surface plasmon resonance measurements quantifying the interaction of anti-IL-13 Fabs with several hrIL-13 are performed using the optical biosensor, BIAcore 2000. Specific binding of IL-13 to a respective IL-13 Fab immobilized on a BIAcore chip can be measured by following accumulation of the ligand on the receptor. The microscopic association ($kon$) and dissociation rates ($koff$) can be obtained directly from the mass accumulation rates on the chip and are expressed in response units (RUs). Anti-IL-13 Fab is immobilized on the chip surface via a secondary anti-human Lκ antibody (Jackson Immunochemicals). This capture antibody was covalently bound using the 'Amine coupling kit' (BIAcore, Cat. No. BR-1000-50) as recommended in the manufacturers' protocols. 250 μl of varying concentrations of hrIL-13 was injected at flow rate of 20 μl/min and the kinetic trace was recorded. The chip surface was regenerated by two acid wash steps using 100 mM HCl and injecting 10 μl with a flow rate of 20 μl/min. This treatment leads to dissociation of the Fab IL-13 complex due to reversible acid denaturation. No significant loss of binding activity was observed when the antibody was reinjected for a subsequent run. The kinetic traces were evaluated with the BIAcore software applying the 1:1 Langmuir association model The summarized affinity data on human IL-13 is shown in Table 1 herein.

T1 sequence (P35225 35-146 limits assumed): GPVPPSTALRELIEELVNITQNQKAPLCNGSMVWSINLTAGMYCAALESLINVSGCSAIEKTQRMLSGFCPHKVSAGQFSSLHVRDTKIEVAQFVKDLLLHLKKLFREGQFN

Row | Binder | EC50 [nM] human IL-13 (IL-13-induced eotaxin release from human lung fibroblasts) (recombinant human IL-13 [1]) [nM] | Kd (recombinant human IL-13 [2]) [nM]
1 | 01471/G6 antibody (human IgG1, kappa) (antibody, V domains shown) VH: EVQLVESGGGVVQPGRSLRLSCAASGFTFSNYGMHWVRQAPGKGLEWVAIIWYDGSNKYYADSVKGRFTISRDNSKNTLYLQMNSLRAEDTAVYYCVKGSGDIPFDYWGQGTLVT VL: EIVLTQSPATLSSSPGERATLSCRASQSVSSYLAWYQQKPGQAPRLLIYDASNRATGIPARFSGSGSGTDFTLTISSLEPEDFAVYYCHQRSHWPPIFTFGPGT | 1.23 | 
2 | 01471/G6 Fab (Fab, V domains shown, Soluble human Fab expressed in E. coli, kappa light chain (captured via anti-human L-kappa antibody); the printed variable regions stop short of the end of framework 4) VH: EVQLVESGGGVVQPGRSLRLSCAASGFTFSNYGMHWVRQAPGKGLEWVAIIWYDGSNKYYADSVKGRFTISRDNSKNTLYLQMNSLRAEDTAVYYCVKGSGDIPFDYWGQGTLVT VL: EIVLTQSPATLSSSPGERATLSCRASQSVSSYLAWYQQKPGQAPRLLIYDASNRATGIPARFSGSGSGTDFTLTISSLEPEDFAVYYCHQRSHWPPIFTFGPGT |  | 0.1
3 | 01951/G12 Fab (Fab, V domains shown, Soluble human Fab expressed in E. coli, kappa light chain) VH: EVQLVESGGGVVQPGRSLRLSCAASGFTFSSYGMHWVRQAPGKGLEWVAIIWYDGSNKYYADSVKGRFTISRDNSKNTLYLQMNSLRAEDTAVYYCARLWFGDLDAFDIWGQGTMVT VL: EIVLTQSPATLSLSPGERAILSCRAGQSVSSYLVWYQQKPGQAPRLLIYDASNRATGIPARFSGSGSGTDFTLTISSLEPEDFAVYYCQQRSSWPPVYTFGQGT |  | 0.48
4 | 01771/E10 Fab (Fab, V domains shown, Soluble human Fab expressed in E. coli, kappa light chain) VH: QVQLVQSGGGVVQPGRSLRLSCAASGFTFSSYGMHWVRQAPGKGLEWVAIIWYDGSNKYYADSVKGRFTISRDNSKNTLYLQMNSLRAEDTAVYYCARLWFGDLDAFDIWGQGTMVT VL: EIVLTQSPATLSLSPGERATLSCRASQSVSSYLAWYQQKPGQAPRLLIYDASNRATGIPARFSGSGSGTDFTLTISSLEPEDFAVYYCHQRSSWPPIFTFGPGT |  | 0.343

Now from value to binder:

Row | EC50 [nM] human IL-13 (IL-13-induced eotaxin release from human lung fibroblasts) (recombinant human IL-13 [1]) [nM] | Kd (recombinant human IL-13 [2]) [nM] | Binder
5 | 0.33 |  | 01951/G12 antibody (human IgG1, kappa) (antibody, V domains shown) VH: EVQLVESGGGVVQPGRSLRLSCAASGFTFSSYGMHWVRQAPGKGLEWVAIIWYDGSNKYYADSVKGRFTISRDNSKNTLYLQMNSLRAEDTAVYYCARLWFGDLDAFDIWGQGTMVTVSS VL: EIVLTQSPATLSLSPGERAILSCRAGQSVSSYLVWYQQKPGQAPRLLIYDASNRATGIPARFSGSGSGTDFTLTISSLEPEDFAVYYCQQRSSWPPVYTFGQGTKLEIKR
6 | 0.95 |  | 03161/H2 antibody (human IgG1, kappa) (antibody, V domains shown) VH: EVQLVESGGGVVQPGRSLRLSCAASGFTFSNYGMHWVRQAPGKGLEWVAIIWYDGSNKYYADSVKGRFTISRDNSKNTLYLQMNSLRAEDTAVYYCVKGSGDIPFDYWGQGTLVT VL: EIVLTQSPATLSSSPGERATLSCRASQSVSSYLAWYQQKPGQAPRLLIYDASNRATGTPARFSGSGSGTDFTLTISSLEPEDFAVYYCHQRSHWPPIFTFGPGT
7 | 1.71 |  | 01771/E10 antibody (human IgG1, kappa) (antibody, V domains shown) VH: QVQLVQSGGGVVQPGRSLRLSCAASGFTFSSYGMHWVRQAPGKGLEWVAIIWYDGSNKYYADSVKGRFTISRDNSKNTLYLQMNSLRAEDTAVYYCARLWFGDLDAFDIWGQGTMVT VL: EIVLTQSPATLSLSPGERATLSCRASQSVSSYLAWYQQKPGQAPRLLIYDASNRATGIPARFSGSGSGTDFTLTISSLEPEDFAVYYCHQRSSWPPIFTFGPGT
8 |  | 0.197 | 03161/H2 Fab (Fab, V domains shown, Soluble human Fab expressed in E. coli, kappa light chain) VH: EVQLVESGGGVVQPGRSLRLSCAASGFTFSNYGMHWVRQAPGKGLEWVAIIWYDGSNKYYADSVKGRFTISRDNSKNTLYLQMNSLRAEDTAVYYCVKGSGDIPFDYWGQGTLVT VL: EIVLTQSPATLSSSPGERATLSCRASQSVSSYLAWYQQKPGQAPRLLIYDASNRATGTPARFSGSGSGTDFTLTISSLEPEDFAVYYCHQRSHWPPIFTFGPGT

— patent US7910708 (Novartis, dated 2011)
